Key:
[1] = biological target: T1, human CEACAM5 on CEACAM5-expressing cancer cell lines (human, UniProt P06731 35-685); test: flow cytometry on MKN-45 cells, K2AC100 directly labeled with a fluorochrome, no competitor
T1 construct: whole, on cells; also called CEACAM5 on SK-CO-1, MKN-45, HPAF-II, SNU-C1, Ls174T, LoVo cells
T1 sequence (looked up): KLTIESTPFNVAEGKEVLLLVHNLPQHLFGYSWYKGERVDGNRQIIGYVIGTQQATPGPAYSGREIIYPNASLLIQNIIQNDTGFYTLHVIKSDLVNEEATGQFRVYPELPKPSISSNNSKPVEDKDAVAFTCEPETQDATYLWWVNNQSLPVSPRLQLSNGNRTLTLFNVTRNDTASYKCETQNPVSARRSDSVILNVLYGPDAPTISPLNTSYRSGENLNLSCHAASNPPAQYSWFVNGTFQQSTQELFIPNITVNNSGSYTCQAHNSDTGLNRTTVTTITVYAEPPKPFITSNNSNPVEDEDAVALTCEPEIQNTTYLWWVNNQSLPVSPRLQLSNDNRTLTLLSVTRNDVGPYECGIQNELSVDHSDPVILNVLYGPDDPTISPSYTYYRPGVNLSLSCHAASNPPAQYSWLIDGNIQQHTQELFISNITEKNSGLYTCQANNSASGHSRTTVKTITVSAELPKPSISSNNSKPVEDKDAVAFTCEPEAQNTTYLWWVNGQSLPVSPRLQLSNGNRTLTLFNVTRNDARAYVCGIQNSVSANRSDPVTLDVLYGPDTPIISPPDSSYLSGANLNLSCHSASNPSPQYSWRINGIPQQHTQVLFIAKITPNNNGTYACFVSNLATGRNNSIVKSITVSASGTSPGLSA
Method: (§1) A binding assay to cells expressing CEACAM5 was performed as described in Example 6. […] An antibody was regarded as non-competitive if 300 nM of the antibody shifts the binding curve of a bispecific antibody of the invention by less than a factor of 3.
(§2) In this experiment, the concentration-dependent binding of CD47×CEACAM5 bispecific antibody K2AC100 was measured in the presence of an anti-CEACAM5 mAbs, either TCB2014 or TCB 2017. This binding was measured at the cell surface of CEACAM5-expressing MKN-45 cells. K2AC100 was directly labeled with a fluorochrome to follow its binding on MKN-45 cells alone (dark line, dark circles), in presence of 300 nM of TCB2014 (dark line, dark triangles) or 30 nM of TCB2017 (dark line, black diamonds). Negative controls (Ctrl) were used (IgG1 in presence of TCB2014 or TCB2017). […] Therefore, the K2AC100 antibody is non-competitive with the TCB2014 and TCB2017 antibodies with respect to CEACAM5 binding.

[2] = biological target: T1, human CEACAM5 on CEACAM5-expressing …; test: flow cytometry on MKN-45 cells, K2AC100 directly labeled with a fluorochrome, in presence of 30 nM TCB2017
Method: as §1, §2

[3] = biological target: T1, human CEACAM5 on CEACAM5-expressing …; test: flow cytometry on MKN-45 cells, K2AC100 directly labeled with a fluorochrome, in presence of 300 nM TCB2014
Method: as §1, §2

Measured: EC50 (read off the curve)

B1: K2AC100 (bispecific antibody, human IgG1, kappa, lambda)
heavy: not shown
light 1: QSVLTQPPSVSAAPGQKVTISCSGSSSNIGYGLVSWYQQLPGTAPKLLIYNGNIRPSGIPDRFSGSKSGTSATLGITGLQTGDEADYYCGTWDFSYRVDFGGGTKLTVLGQPKAAPSVTLFPPSSEELQANKATLVCLISDFYPGAVTVAWKADSSPVKAGVETTTPSKQSNNKYAASSYLSLTPEQWKSHRSYSCQVTHEGSTVEKTVAPTECS
light 2: not shown
notes: Kappa-lambda body; also called CD47xCEACAM5 bispecific antibody K2AC100; AC100 (CEACAM5 arm)
~2 µg/mL: [1] | [2] | [3]
